The results in this text go back to patent US20080181903A1, “CONJUGATE OF NATRIURETIC PEPTIDE AND ANTIBODY CONSTANT REGION” (PDL BioPharma, Inc., priority 2006, published 2008).

Test [1] has as its target NPR-A-Fc receptor fusion protein (human). As to the kind of experiment: SPR (BIAcore), NPR-A-Fc captured by anti-human Fc, analyte injected, 1:1 Langmuir fit.
The target is the same in test [2]. Put plainly: BIAcore surface plasmon resonance; NPR-A-Fc captured by immobilized goat anti-human Fc gamma antibody, analyte injected; 1:1 Langmuir fit.
Test [3] deals with NPR-A receptor expressed on transfected cells. As to the kind of experiment: cell-based or functional assay.
Test [4] has as its target NPR-A-Fc receptor fusion protein (human). As to the kind of experiment: SPR (BIAcore), NPR-A-Fc captured by anti-human Fc, analyte injected, 1:1 Langmuir fit; experiment with Uro-Fc.
Test [5] shares this target. Put plainly: SPR (BIAcore), NPR-A-Fc captured by anti-human Fc, analyte injected, 1:1 Langmuir fit; experiment with Fc-Uro.
In a further test the target is T1, NPR-A receptor (Homo sapiens, UniProt P16066).
T1 construct: expressed in transfected cells; host or cells: mammalian tissue culture cells (e.g., 3T12 cells)
T1 sequence (P16066 33-1061): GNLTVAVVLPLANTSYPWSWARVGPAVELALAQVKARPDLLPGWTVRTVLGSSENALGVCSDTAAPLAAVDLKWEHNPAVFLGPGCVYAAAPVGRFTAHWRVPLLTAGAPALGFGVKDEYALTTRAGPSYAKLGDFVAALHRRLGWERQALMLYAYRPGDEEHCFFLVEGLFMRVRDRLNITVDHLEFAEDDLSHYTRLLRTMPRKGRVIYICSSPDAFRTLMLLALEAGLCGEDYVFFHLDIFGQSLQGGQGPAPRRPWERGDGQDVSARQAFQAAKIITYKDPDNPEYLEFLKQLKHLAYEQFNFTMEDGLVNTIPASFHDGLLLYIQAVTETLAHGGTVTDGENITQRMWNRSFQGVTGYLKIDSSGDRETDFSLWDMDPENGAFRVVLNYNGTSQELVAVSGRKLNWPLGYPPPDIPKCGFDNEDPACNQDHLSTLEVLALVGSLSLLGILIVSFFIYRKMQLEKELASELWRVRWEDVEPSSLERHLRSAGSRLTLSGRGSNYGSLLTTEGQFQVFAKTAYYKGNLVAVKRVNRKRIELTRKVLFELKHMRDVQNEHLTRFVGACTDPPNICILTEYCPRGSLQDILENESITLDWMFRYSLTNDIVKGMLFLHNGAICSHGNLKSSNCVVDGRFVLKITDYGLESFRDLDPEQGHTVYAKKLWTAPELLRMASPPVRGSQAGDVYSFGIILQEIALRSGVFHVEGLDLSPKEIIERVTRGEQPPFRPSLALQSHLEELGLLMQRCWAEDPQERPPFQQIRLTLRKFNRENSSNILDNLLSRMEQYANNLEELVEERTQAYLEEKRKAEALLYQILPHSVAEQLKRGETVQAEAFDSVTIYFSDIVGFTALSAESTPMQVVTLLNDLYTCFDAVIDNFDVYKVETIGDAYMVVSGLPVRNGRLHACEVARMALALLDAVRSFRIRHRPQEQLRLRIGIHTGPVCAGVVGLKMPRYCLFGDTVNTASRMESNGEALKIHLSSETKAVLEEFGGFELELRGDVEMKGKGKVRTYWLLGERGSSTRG
As to the kind of experiment: NPR-A receptor activation, intracellular cGMP in transfected cells. Type of test: cell-based. The note with it: cells expressing NPR-A; Fc-Uro vs ularitide (FIG. 3B); read-out: EC50 of cGMP induction.

For test [6], the target named is T2, purified NPR-A-Fc fusion protein (extracellular domain of the receptor NPR-A) (Homo sapiens, UniProt P16066).
T2 construct: Expression construct encoding for the extracellular domain of the receptor NPR-A fused to the DNA encoding for the Fc domain of human immunoglobulin; made in house
T2 sequence (P16066 33-473 limits assumed): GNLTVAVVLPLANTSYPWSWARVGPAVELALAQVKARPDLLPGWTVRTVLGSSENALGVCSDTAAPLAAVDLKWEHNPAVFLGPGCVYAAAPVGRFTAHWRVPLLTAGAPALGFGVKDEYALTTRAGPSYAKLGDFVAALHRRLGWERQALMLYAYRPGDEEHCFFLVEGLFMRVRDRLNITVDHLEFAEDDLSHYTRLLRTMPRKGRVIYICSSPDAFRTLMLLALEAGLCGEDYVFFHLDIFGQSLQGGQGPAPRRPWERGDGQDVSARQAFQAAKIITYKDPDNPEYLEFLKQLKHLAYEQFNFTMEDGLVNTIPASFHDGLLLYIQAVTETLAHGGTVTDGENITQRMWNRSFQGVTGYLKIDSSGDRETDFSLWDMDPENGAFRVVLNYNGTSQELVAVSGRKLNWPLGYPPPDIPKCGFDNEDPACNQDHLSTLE
Put plainly: BIAcore natriuretic peptide receptor (NPR) binding assay. The following applies: Fc-Uro vs ularitide comparison (FIG. 2B), n=6, read-out: Binding affinities (KD) on the NPR-A receptor.
Experimental: Kinetics measurements for analytes resulting in estimates of binding affinity constants (KD) were performed using BIAcore 2000 & 3000 instruments and methods recommended by the manufacturer (BIAcore, Sweden). […] Purified NPR-A-Fc receptor fusion proteins were captured by goat anti-human Fcγ (GAHFc) antibodies (Jackson ImmunoResearch, Cat 109-005-098) immobilized onto the sensorchip surface. The unoccupied GAHFc after the capture was shielded from analytes by the injection of human Fc (huFc, Jackson ImmunoResearch, Cat 009-000-008). Analytes were injected to obtain an association phase followed by injection of HBS-P running buffer (10 mM HEPES, 150 mM sodium chloride, 0.005% P-20 surfactant, pH 7.4) to monitor dissociation for each binding cycle.
The binding kinetics of each analyte-receptor pair was calculated from a global analysis of sensorgram data collected from different analyte concentrations using the BIAevaluate program (BIAcore, Sweden). The affinity (KD) resulting from association (ka) and dissociation (kd) of each analyte against each receptor was obtained by simultaneously fitting the association and dissociation phases of the sensorgram from the analyte concentration series using the same 1:1 Langmuir model from the BIAevaluate software (BIAcore, Sweden).

For “Uro-Fc(huFcG1(m1)) fusion protein (Fc fusion)”, the equilibrium dissociation constant (Kd) in test [1] was 7000 nM; in test [2] it was 0.007 nM. In test [3], this molecule showed an intracellular cGMP levels, EC50 of 26.3 nM.
Turning to ularitide (peptide), the results for the Kd in test [4], in test [2] and in test [5] were 3100 nM, 0.0031 nM and 0.0042 nM, respectively.
For the molecule “Fc-Uro(huFcG1(m1)) fusion protein (from UniProt P01857 104-330) (Fc fusion)”, the Kd in test [1] came out at 0.35 nM. For the same molecule, the intracellular cGMP levels, EC50 in test [3] is 86 nM.

B1: Fc-Uro(huFcG1(m1)): fusion protein: Fc portion of variant human immunoglobulin heavy constant gamma 1 at amino terminus and human urodilatin at carboxy terminus (protein)
chain: DKTHTCPPCPAPEAEGAPSVFLFPPKPKDTLMISRTPEVTCVVVDVSHEDPEVKFNWYVDGVEVHNAKTKPREEQYNSTYRVVSVLTVLHQDWLNGKEYKCKVSNKALPAPIEKTISKAKGQPREPQVYTLPPSRQELTKNQVSLTCLVKGFYPSDIAVEWESNGQPENNYKTTPPVLDSDGSFFLYSKLTVDKSRWQQGNVFSCSVMHEALHNHYTQKSLSLSPGKTAPRSLRRSSCFGGRMDRIGAQSGLGCNSFRY
In the case of B1, in the test with NPR-A receptor, the EC50 stood at 86 nM. Also, the Kd in test [6] worked out at 0.35 ± 0.1 nM.
